Data on 26 substances can be found in FireProtDB.

Where [1] appears, read: Oryctolagus cuniculus, pH 7, Thermal, DSC, Glycerol 20 % v/v, KCl 100 mM, reversible: no, whole UniProt chain shown.
Where [2] appears, read: Escherichia coli (strain K12), pH 7.2, 51.8 °C, Thermal, DSC, HEPES 0.05 mM, structure 1ANK.
Setting [3] is: Escherichia coli (strain K12), pH 7.2, Thermal, DSC, HEPES 0.05 mM, structure 1ANK.
Where [4] appears, read: Escherichia coli (strain K12), pH 7.4, Thermal, DSC, HEPES 50 mM, structure 1ANK.
The mark [5] stands for this setting: Escherichia coli (strain K12), pH 7.2, Thermal, DSC, HEPES 0.05 mM.
[6] abbreviates: Escherichia coli (strain K12), pH 7.4, Thermal, DSC, HEPES 50 mM.
The mark [7] stands for this setting: Methanobacterium formicicum, pH 7.2, 25 °C, GdnHCl, CD, potasssium phosphate 20 mM, KCl 200 mM, reversible: yes.
[8] abbreviates: Escherichia coli (strain K12), pH 7, 10 °C, Urea, CD, Potassium phosphate 50 mM, KCl 100 mM.
[9] abbreviates: Escherichia coli (strain K12), pH 7, 25 °C, GdnHCl, Fluorescence, potassium phosphate 50 mM, KCl 100 M, reversible: yes.
[10] abbreviates: Escherichia coli (strain K12), pH 7, 25 °C, Urea, CD, Potassium phosphate 50 mM, KCl 100 mM.
Where [11] appears, read: Escherichia coli (strain K12), pH 7, 25 °C, Urea, Fluorescence, potassium phosphate 50 mM, KCl 100 mM, reversible: yes.
Setting [12] is: Gallus gallus, pH 7, 25 °C, NaClO4 titration, CD, PIPES 10 mM, NaCl 50 mM, reversible: no.
Setting [13] is: Saccharomyces cerevisiae (strain ATCC 204508 / S288c), pH 6, 46.5 °C, Thermal, Absorbance, Sodium phosphate 100 mM, reversible: yes, structure 1YCC.
[14] abbreviates: Saccharomyces cerevisiae (strain ATCC 204508 / S288c), pH 6, Thermal, Absorbance, Sodium phosphate 100 mM, reversible: yes, structure 1YCC.
Where [15] appears, read: Saccharomyces cerevisiae (strain ATCC 204508 / S288c), pH 7.5, 22 °C, GdnHCl, CD, Tris 20 mM, NaCl 40 mM, structure 1YCC.
The mark [16] stands for this setting: Saccharomyces cerevisiae (strain ATCC 204508 / S288c), pH 4.6, 37 °C, Thermal, DSC, Potassium acetate 0.1 M, reversible: yes, structure 1YCC.
[17] abbreviates: Saccharomyces cerevisiae (strain ATCC 204508 / S288c), pH 6, 20 °C, GdnHCl, Fluorescence, Sodium phosphate 0.1 M, reversible: yes, structure 1YCC.
Setting [18] is: Saccharomyces cerevisiae (strain ATCC 204508 / S288c), pH 6, 20 °C, GdnHCl, Fluorescence, Sodium phosphate 0.1 M, reversible: yes.
Where [19] appears, read: Saccharomyces cerevisiae (strain ATCC 204508 / S288c), pH 7, 25 °C, GdnHCl, CD, Tris 20 mM, NaCl 40 mM, reversible: yes.
Setting [20] is: Saccharomyces cerevisiae (strain ATCC 204508 / S288c), pH 7.5, 22 °C, GdnHCl, CD, Tris 20 mM, NaCl 40 mM.

Where “and” joins values, the source holds several entries; their conditions need not be identical. Equal values may be shown once.

Chain of Cytochrome c isoform 1 H39P|N58I, P00044 H39P N58I (P00044 whole entry H39P/N58I, canonical isoform): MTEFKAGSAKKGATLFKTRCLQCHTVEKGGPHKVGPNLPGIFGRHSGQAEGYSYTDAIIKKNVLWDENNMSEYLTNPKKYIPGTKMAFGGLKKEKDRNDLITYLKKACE
Chain of Cytochrome c isoform 1 P77T, P00044 (P00044 whole entry P77T, canonical isoform): as the sequence (P00044 whole entry H39P/N58I, canonical isoform) above, with P39H, I58N, P77T counted along it
Chain of Cytochrome c isoform 1 N58G|C108A, P00044 N58G C108A (P00044 whole entry N58G/C108A, canonical isoform): as the sequence (P00044 whole entry H39P/N58I, canonical isoform) above, with P39H, I58G, C108A counted along it
Chain of Cytochrome c isoform 1 wild type, P00044 (P00044 whole entry, canonical isoform): as the sequence (P00044 whole entry H39P/N58I, canonical isoform) above, with P39H, I58N counted along it
Chain of Cytochrome c isoform 1 H32N|H39N|H45Q|C108S, P00044 H32N H39N H45Q C108S (P00044 whole entry H32N/H39N/H45Q/C108S, canonical isoform): as the sequence (P00044 whole entry H39P/N58I, canonical isoform) above, with H32N, P39N, H45Q, I58N, C108S counted along it
Chain of Cold shock protein CspA wild type, P0A9X9 (P0A9X9 whole entry): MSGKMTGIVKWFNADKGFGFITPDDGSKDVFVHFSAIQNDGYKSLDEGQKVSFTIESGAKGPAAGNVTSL
Chain of Archaeal histone B wild type, P48784 (P48784 whole entry): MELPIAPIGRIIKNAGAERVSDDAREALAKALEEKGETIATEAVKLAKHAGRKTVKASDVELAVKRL
Chain of Cytochrome c isoform 1 N58I, P00044 (P00044 whole entry N58I, canonical isoform): as the sequence (P00044 whole entry H39P/N58I, canonical isoform) above, with P39H counted along it
Chain of Adenylate kinase wild type, P69441 (P69441 whole entry): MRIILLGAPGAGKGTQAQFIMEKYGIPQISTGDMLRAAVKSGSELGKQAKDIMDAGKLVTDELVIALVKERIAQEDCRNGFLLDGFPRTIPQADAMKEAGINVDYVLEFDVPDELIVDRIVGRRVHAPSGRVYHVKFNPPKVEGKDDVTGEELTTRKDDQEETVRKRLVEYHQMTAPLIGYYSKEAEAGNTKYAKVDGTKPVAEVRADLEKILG
Chain of Cytochrome c isoform 1 C108A, P00044 (P00044 whole entry C108A, canonical isoform): as the sequence (P00044 whole entry H39P/N58I, canonical isoform) above, with P39H, I58N, C108A counted along it
Chain of Cytochrome c isoform 1 P77I, P00044 (P00044 whole entry P77I, canonical isoform): as the sequence (P00044 whole entry H39P/N58I, canonical isoform) above, with P39H, I58N, P77I counted along it
Chain of Cytochrome c isoform 1 C108S, P00044 (P00044 whole entry C108S, canonical isoform): as the sequence (P00044 whole entry H39P/N58I, canonical isoform) above, with P39H, I58N, C108S counted along it
Chain of Cytochrome c isoform 1 N58I|C108A, P00044 N58I C108A (P00044 whole entry N58I/C108A, canonical isoform): as the sequence (P00044 whole entry H39P/N58I, canonical isoform) above, with P39H, C108A counted along it
Chain of Cytochrome c isoform 1 G35S|N58I, P00044 G35S N58I (P00044 whole entry G35S/N58I, canonical isoform): as the sequence (P00044 whole entry H39P/N58I, canonical isoform) above, with G35S, P39H counted along it
Chain of Cytochrome c V93A, P67881 (P67881 whole entry V93A): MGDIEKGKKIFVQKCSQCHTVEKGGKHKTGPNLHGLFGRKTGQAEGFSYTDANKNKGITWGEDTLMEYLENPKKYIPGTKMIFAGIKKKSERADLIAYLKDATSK
Chain of Endo-1,4-beta-xylanase wild type, Q56013 (Q56013 entry or part of it): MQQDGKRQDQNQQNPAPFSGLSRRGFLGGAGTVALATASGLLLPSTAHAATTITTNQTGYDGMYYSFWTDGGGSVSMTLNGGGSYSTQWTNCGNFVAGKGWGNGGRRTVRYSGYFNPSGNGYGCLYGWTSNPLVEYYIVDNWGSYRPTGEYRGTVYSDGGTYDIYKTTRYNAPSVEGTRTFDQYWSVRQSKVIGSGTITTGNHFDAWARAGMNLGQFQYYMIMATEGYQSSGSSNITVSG
Chain of Creatine kinase B-type wild type, P12277 (P12277 whole entry): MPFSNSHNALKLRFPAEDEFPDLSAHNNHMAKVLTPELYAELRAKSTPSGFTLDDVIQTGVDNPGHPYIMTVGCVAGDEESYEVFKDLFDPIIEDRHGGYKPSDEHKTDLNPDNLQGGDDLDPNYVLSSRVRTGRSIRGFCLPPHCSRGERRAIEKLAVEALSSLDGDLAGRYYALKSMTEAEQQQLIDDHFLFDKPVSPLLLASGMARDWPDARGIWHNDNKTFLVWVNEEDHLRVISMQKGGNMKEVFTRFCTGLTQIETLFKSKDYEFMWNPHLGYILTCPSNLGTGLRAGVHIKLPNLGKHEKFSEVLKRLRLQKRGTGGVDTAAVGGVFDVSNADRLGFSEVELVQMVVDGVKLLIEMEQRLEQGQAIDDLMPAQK
Chain of Cytochrome c V93A|S104A, P67881 V93A S104A (P67881 whole entry V93A/S104A): as the sequence (P67881 whole entry V93A) above, with S104A counted along it
Chain of Cytochrome c wild type, P67881 (P67881 whole entry): as the sequence (P67881 whole entry V93A) above, with A93V counted along it
Chain of Cytochrome c wild type, P00041 (P00041 whole entry): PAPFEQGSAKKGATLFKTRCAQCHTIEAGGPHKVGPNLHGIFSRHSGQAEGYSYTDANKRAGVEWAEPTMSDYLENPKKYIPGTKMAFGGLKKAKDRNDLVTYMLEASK

Consider AKKVLPLLLPPLVXAALGLAXF [wild type], for which, under setting [1], the midpoint of thermal melting (Tm) (usually the temperature at which the thermal transition is half complete) was 42.3 °C and the “unfolding enthalpy (calorimetric)” value worked out at 300 kcal/mol.

Consider “APRLPQCQGDDQEKCLCNKDECPPGQCRFPRGDADPYCE [Decorsin wild type]”, for which the Tm (Macrobdella decora, pH 7, Thermal, CD, Na2HPO4 10 mM, reversible: Yes, whole UniProt chain shown) worked out at 74 °C.

As for Adenylate kinase D84H, P69441, under setting [2], the “ddG of mutation (higher = less stable)” value was found to be 1.4 kcal/mol. In addition, under setting [3], the midpoint of thermal melting (Tm) was determined as 44.6 °C; the “change of melting temperature, mutant - wild type (higher = more stable)” value (shortened to “change of melting temperature, mutant”) is -7.2 °C; the “unfolding enthalpy (calorimetric)” value stood at 63 kcal/mol.

For Adenylate kinase F86L, P69441, the “ddG of mutation (higher = less stable)” value under setting [2] was determined as 0.8 kcal/mol. For the same substance, under setting [3], the Tm came to 49.2 °C; the “change of melting temperature, mutant” value is -2.6 °C; the “unfolding enthalpy (calorimetric)” value is 97 kcal/mol.

In the case of Adenylate kinase G85V, P69441, under setting [2], the “ddG of mutation (higher = less stable)” value amounted to 2.4 kcal/mol. Under setting [3], the Tm was 40.7 °C; the “change of melting temperature, mutant” value was -11.1 °C; the “unfolding enthalpy (calorimetric)” value was 70 kcal/mol.

On to Adenylate kinase R88G, P69441, for which the “ddG of mutation (higher = less stable)” value (Escherichia coli (strain K12), pH 7.4, 51.8 °C, Thermal, DSC, HEPES 50 mM, structure 1ANK) stood at 0.2 kcal/mol. Moreover, under setting [4], the melting temperature (Tm) worked out at 51 °C; the “change of melting temperature, mutant” value was -0.8 °C; the “unfolding enthalpy (calorimetric)” value was 75 kcal/mol; the “unfolding enthalpy (van 't Hoff)” value was 161 kcal/mol.

Turning to Adenylate kinase wild type, P69441, under setting [5], the Tm stood at 51.8 °C and the “unfolding enthalpy (calorimetric)” value is 95 kcal/mol. Under setting [6], the midpoint of thermal melting (Tm) came to 51.8 °C, the “unfolding enthalpy (calorimetric)” value turned out to be 95 kcal/mol and the “unfolding enthalpy (van 't Hoff)” value turned out to be 158 kcal/mol.

As to Archaeal histone B wild type, P48784, under setting [7], the denaturant m value is 3.4 kcal/mol/M; the unfolding free energy is 5.7 kcal/mol and 10.8 kcal/mol.

Turning to “Cold shock protein CspA wild type, P0A9X9”, the denaturant m value was found to be 0.59 kcal/mol/M under setting [8], 2.2 kcal/mol/M under setting [9], 0.71 kcal/mol/M under setting [10] and 0.71 kcal/mol/M under setting [11]. The “denaturant midpoint (higher = more stable)” value (“denaturant midpoint” for short) by setting is: under setting [8], 4.95 M; under setting [9], 1.4 M; under setting [10], 4.2 M; under setting [11], 4.2 M. Moreover, the unfolding free energy reads like this: under setting [8], 2.92 kcal/mol; under setting [9], 3.1 kcal/mol; under setting [10], 3 kcal/mol; under setting [11], 3 kcal/mol. Further, the Tm (Escherichia coli (strain K12), pH 7, Thermal, CD, potassium phosphate 50 mM, KCl 100 M, reversible: yes) was 59 °C.

For the substance “Creatine kinase B-type wild type, P12277”, the Tm reads like this: (Homo sapiens, pH 8, Thermal, CD, Tris-HCl, transition: 2, reversible: No) 47.3 °C; (Homo sapiens, pH 8, Thermal, Fluorescence, Tris-HCl, transition: 2, reversible: No) 45.7 °C.

On to Cytochrome c V93A, P67881, for which, under setting [12], the “ddG of mutation (higher = less stable)” value came out at 0.26 kcal/mol and the unfolding free energy was found to be 4.91 kcal/mol.

As to “Cytochrome c V93A|S104A, P67881 V93A S104A”, under setting [12], the “ddG of mutation (higher = less stable)” value was found to be 0.26 kcal/mol and the unfolding free energy stood at 4.91 kcal/mol.

For the substance Cytochrome c isoform 1 C108A, P00044, under setting [13], the “ddG of mutation (higher = less stable)” value is -2.9 kcal/mol and the “heat capacity change of unfolding” value stood at 2 kcal/mol/K. For the same substance, under setting [14], the Tm came to 58.1 °C; the “change of melting temperature, mutant” value stood at 11.6 °C; the “heat capacity change of unfolding” value was found to be 2 kcal/mol/K; the “unfolding enthalpy (van 't Hoff)” value stood at 89 kcal/mol.

Cytochrome c isoform 1 C108S, P00044: under setting [13], the “ddG of mutation (higher = less stable)” value is -2.8 kcal/mol and the “heat capacity change of unfolding” value came to 2 kcal/mol/K. Further, under setting [14], the Tm was 57.8 °C; the “change of melting temperature, mutant” value is 11.3 °C; the “heat capacity change of unfolding” value was 2 kcal/mol/K; the “unfolding enthalpy (van 't Hoff)” value came out at 87 kcal/mol.

Take “Cytochrome c isoform 1 G35S|N58I, P00044 G35S N58I”: under setting [13], the “ddG of mutation (higher = less stable)” value was 1.5 kcal/mol and the “heat capacity change of unfolding” value was determined as 2 kcal/mol/K. Besides, under setting [14], the Tm amounted to 40.3 °C; the “change of melting temperature, mutant” value was -6.2 °C; the “heat capacity change of unfolding” value came out at 2 kcal/mol/K; the “unfolding enthalpy (van 't Hoff)” value came out at 58 kcal/mol.

As for “Cytochrome c isoform 1 H32N|H39N|H45Q|C108S, P00044 H32N H39N H45Q C108S”, under setting [15], the “ddG of mutation (higher = less stable)” value came to 1.05 kcal/mol, the denaturant m value was 3.83 kcal/mol/M, the “denaturant midpoint” value was 1.04 M and the unfolding free energy was determined as 4 kcal/mol.

For “Cytochrome c isoform 1 H39P|N58I, P00044 H39P N58I”, under setting [13], the “ddG of mutation (higher = less stable)” value stood at 0.8 kcal/mol and the “heat capacity change of unfolding” value was found to be 2 kcal/mol/K. Besides, under setting [14], the melting temperature (Tm) turned out to be 43.1 °C; the “change of melting temperature, mutant” value is -3.4 °C; the “heat capacity change of unfolding” value was determined as 2 kcal/mol/K; the “unfolding enthalpy (van 't Hoff)” value is 61 kcal/mol.

Take “Cytochrome c isoform 1 N58G|C108A, P00044 N58G C108A”: under setting [13], the “ddG of mutation (higher = less stable)” value was -0.9 kcal/mol and the “heat capacity change of unfolding” value was 2 kcal/mol/K. Further, under setting [14], the midpoint of thermal melting (Tm) amounted to 50.1 °C; the “change of melting temperature, mutant” value was determined as 3.6 °C; the “heat capacity change of unfolding” value worked out at 2 kcal/mol/K; the “unfolding enthalpy (van 't Hoff)” value was 50 kcal/mol.

On to Cytochrome c isoform 1 N58I, P00044, for which the unfolding free energy is 6.8 kcal/mol and 18 kcal/mol (Saccharomyces cerevisiae (strain ATCC 204508 / S288c), pH 4.6, 27 °C, GdnHCl, CD, Sodium acetate 50 mM, reversible: yes, structure 1YCC); 7.17 kcal/mol under setting [16]. The “ddG of mutation (higher = less stable)” value under setting [16] is -3.14 kcal/mol and the “ddG of mutation (higher = less stable)” value under setting [13] is -4.3 kcal/mol. Moreover, under setting [13], the “heat capacity change of unfolding” value is 2 kcal/mol/K.

For “Cytochrome c isoform 1 N58I|C108A, P00044 N58I C108A”, under setting [13], the “ddG of mutation (higher = less stable)” value was -6.2 kcal/mol and the “heat capacity change of unfolding” value is 2 kcal/mol/K. For the same substance, under setting [14], the melting temperature (Tm) was determined as 71.5 °C; the “change of melting temperature, mutant” value worked out at 25 °C; the “heat capacity change of unfolding” value amounted to 2 kcal/mol/K; the “unfolding enthalpy (van 't Hoff)” value turned out to be 115 kcal/mol.

For Cytochrome c isoform 1 P77I, P00044, under setting [17], the “ddG of mutation (higher = less stable)” value came out at 1.7 kcal/mol, the “denaturant midpoint” value came out at 0.72 M and the unfolding free energy amounted to 1.9 kcal/mol.

Consider Cytochrome c isoform 1 P77T, P00044, for which, under setting [17], the “ddG of mutation (higher = less stable)” value turned out to be 1.7 kcal/mol, the “denaturant midpoint” value was 0.72 M and the unfolding free energy is 1.9 kcal/mol.

As for “Cytochrome c isoform 1 wild type, P00044”, the unfolding free energy was 5.3 kcal/mol (Saccharomyces cerevisiae (strain ATCC 204508 / S288c), pH 4.6, 25 °C, Thermal, Absorbance, Sodium acetate 100 mM, reversible: yes); 5.3 kcal/mol (Saccharomyces cerevisiae (strain ATCC 204508 / S288c), pH 4.6, 25 °C, Thermal, CD, Sodium acetate 100 mM, reversible: yes); 5.6 kcal/mol and 15 kcal/mol (Saccharomyces cerevisiae (strain ATCC 204508 / S288c), pH 4.6, 27 °C, GdnHCl, CD, Sodium acetate 50 mM, reversible: yes); 3.6 kcal/mol under setting [18]; 3.8 kcal/mol (Saccharomyces cerevisiae (strain ATCC 204508 / S288c), pH 6, 25 °C, Thermal, Absorbance, Sodium phosphate 100 mM, reversible: yes); 3.93 kcal/mol under setting [19]. The unfolding free energy under setting [20] was 5.05 kcal/mol. Also, the “denaturant midpoint” value reads like this: under setting [18], 1.07 M; under setting [19], 1.06 M; under setting [20], 1.19 M. In addition, the denaturant m value by setting is: under setting [19], 3.71 kcal/mol/M; under setting [20], 4.24 kcal/mol/M.

Cytochrome c wild type, P00041: the unfolding free energy (Pichia kudriavzevii, pH 6.5, 25 °C, GdnHCl, CD, HCl 0.1 M, reversible: yes) stood at 14 kcal/mol.

On to Cytochrome c wild type, P67881, for which the unfolding free energy under setting [12] turned out to be 5.17 kcal/mol.

“Endo-1,4-beta-xylanase wild type, Q56013”: the Tm by setting is: (Streptomyces sp. EC3, pH 6, Thermal, CD, Sodium phosphate 25 mM, reversible: no) 56.8 °C; (Streptomyces sp. EC3, pH 6, Thermal, Fluorescence, Sodium phosphate 25 mM, reversible: no) 61.1 °C.
